Laboratory results taken from patent publication US20260174822A1.

Biological target: GLP-1R on GeneBLAzer GLP-1R-CRE-bla CHO-K1 cells
Test: cell-based or functional assay

Substance | EC50 of GLP-1R activation (460/530 ratio, GeneBLAzer GLP-1R-CRE-bla CHO-K1 reporter cells) [µM]
GLP-1-His protein (peptide) | 0.193
GLP-1-RFRS-His protein (peptide) | 0.0359
